Molecular target: the molecule itself
Assay: pull-down; GST- and MBP-tagged TMEM25-ECR incubated for 1 h at 4 °C in 150 mM NaCl, 0.1% Triton X-100, 20 mM Tris-HCl pH 7.6; glutathione-Sepharose beads; CBB staining or anti-MBP immunoblot

B1: TMEM25-ECR (residues 27–220), GST- or MBP-tagged (domain or fragment, human, UniProt Q86YD3 27-220, looked up)
chain: ELEPQIDGQTWAERALRENERHAFTCRVAGGPGTPRLAWYLDGQLQEASTSRLLSVGGEAFSGGTSTFTVTAHRAQHELNCSLQDPRSGRSANASVILNVQFKPEIAQVGAKYQEAQGPGLLVVLFALVRANPPANVTWIDQDGPVTVNTSDFLVLDAQNYPWLTNHTVQLQLRSLAHNLSVVATNDVGVTSAS
notes: extracellular region (ECR), residues 27–220; bacterially expressed, non-glycosylated; also called GST–TMEM25-ECR; MBP–TMEM25-ECR; source: E. coli BL21, purified (glutathione-Sepharose 4B or amylose resin)
binding result: binds

From publication PMC10897455, “TMEM25 is a Par3-binding protein that attenuates claudin assembly during tight junction development” (EMBO Reports, 2023)
